Patent US20240009318A1 (BLISS BIOPHARMACEUTICAL HANGZHOU, published 2024)
Positions count from the first letter of the chain named. Names and notes keep the numbering of the source.

B1: BB0500-2f2 (antibody, V domains shown)
VH: QVQLQESGPGLVKPSETLSLTCTVSGGSVSSGDYYWTWIRQSPGKGLEWIGHIYYSGNTNYNPSLKSRLTISIDTSKTQFSLKLSSVTAADTAIYYCVRDRVTGAFDIWGQGTMVTVSS
VL: DIQMTQSPSSLSASVGDRVTITCQASQDISNYLNWYQQKPGKAPKLLIYAASNLETGVPSRFSGSGSGTDFTFTISSLQPEDIATYFCQHFDHLPLAFGGGTKVEIKR
notes: The entries already carry the mutation; also called L2D50 single alanine mutant of panitumumab (VH wt, VL D50A)
B2: BB0500-2f1 (antibody, V domains shown)
VH: B1 VH with T59A
VL: B1 VL with A50D
notes: The entries already carry the mutation; also called H2T59 single alanine mutant of panitumumab (VH T59A, VL wt)
B3: BB0500-2f (antibody)
heavy: QVQLQESGPGLVKPSETLSLTCTVSGGSVSSGDYYWTWIRQSPGKGLEWIGHIYYSGNANYNPSLKSRLTISIDTSKTQFSLKLSSVTAADTAIYYCVRDRVTGAFDIWGQGTMVTVSSASTKGPSVFPLAPCSRSTSESTAALGCLVKDYFPEPVTVSWNSGALTSGVHTFPAVLQSSGLYSLSSVVTVPSSNFGTQTYTCNVDHKPSNTKVDKTVEPKSDKCTHTVECPPCPAPPVAGPSVFLFPPKPKDTLMISRTPEVTCVVVDVSHEDPEVQFNWYVDGVEVHNAKTKPREEQFNSTFRVVSVLTVVHQDWLNGKEYKCKVSNKGLPAPIEKTISKTKGQPREPQVYTLPPSREEMTKNQVSLTCLVKGFYPSDISVEWESNGQPENNYKTTPPMLDSDGSFFLYSKLTVDKSRWQQGNVFSCSVMHEALHNHYTQKSLSLSPGK
light: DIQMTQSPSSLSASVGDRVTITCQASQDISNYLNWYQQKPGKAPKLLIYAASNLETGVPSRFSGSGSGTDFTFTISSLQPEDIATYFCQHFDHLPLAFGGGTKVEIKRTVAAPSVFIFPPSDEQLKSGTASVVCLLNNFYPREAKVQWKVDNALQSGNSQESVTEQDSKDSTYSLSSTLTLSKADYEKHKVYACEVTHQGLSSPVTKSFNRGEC
notes: Same variable domains as BB0500-2n; the heavy chain constant part differs; also called H2T59 / L2D50 double alanine mutant of panitumumab (VH T59A, VL D50A)
B4: BB0500-2g (antibody, V domains shown)
VH: B1 VH with T103A
VL: B1 VL with Y32A, A50D
notes: also called H3T103 / L1Y32 double alanine mutant of panitumumab (VH T103A, VL Y32A)
B5: BB0500-2n (antibody)
heavy: QVQLQESGPGLVKPSETLSLTCTVSGGSVSSGDYYWTWIRQSPGKGLEWIGHIYYSGNANYNPSLKSRLTISIDTSKTQFSLKLSSVTAADTAIYYCVRDRVTGAFDIWGQGTMVTVSSASTKGPSVFPLAPCSRSTSESTAALGCLVKDYFPEPVTVSWNSGALTSGVHTFPAVLQSSGLYSLSSVVTVPSSNFGTQTYTCNVDHKPSNTKVDKTVEPPKSDCKTHTVECPPCPAPEAAGGPSVFLFPPKPKDTLMISRTPEVTCVVVDVSHEDPEVKFNWYVDGVEVHNAKTKPREEQYNSTYRVVSVLTVLHQDWLNGKEYKCKVSNKALPAPIEKTISKAKGQPREPQVYTLPPSREEMTKNQVSLTCLVKGFYPSDIAVEWESNGQPENNYKTTPPVLDSDGSFFLYSKLTVDKSRWQQGNVFSCSVMHEALHNHYTQKSLSLSPGK
light: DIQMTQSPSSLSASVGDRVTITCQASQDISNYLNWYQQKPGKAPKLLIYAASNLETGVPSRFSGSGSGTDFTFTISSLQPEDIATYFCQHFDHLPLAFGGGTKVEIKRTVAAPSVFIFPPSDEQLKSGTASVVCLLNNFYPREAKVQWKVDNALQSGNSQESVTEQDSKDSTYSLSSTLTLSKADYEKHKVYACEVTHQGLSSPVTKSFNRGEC
notes: Same variable domains as BB0500-2f; the heavy chain constant part differs
B6: BB0500-2g1 (antibody, V domains shown)
VH: B1 VH with T103A
VL: B1 VL with A50D
notes: The entries already carry the mutation; also called H3T103 single alanine mutant of panitumumab (VH T103A, VL wt)

target: T1, human EGFR protein (human, UniProt P00533 25-645, limits assumed); assay: ELISA of binding to EGFR, 5-fold dilutions from 10 ug/mL, detection with HRP goat anti-human IgG Fc, OD 450/650 nm
T1 construct: The BLI text says 'human EGFR'; the ELISA text says only 'EGFR'; also called epidermal growth factor receptor; HER1
Description: (§1) Mutant antibody samples or control antibodies diluted in 5-fold serial dilutions starting from 10 μg/mL and 8 dilutions total, were coated onto 96-well plates and the plates were incubated at 4° C. overnight. Using HRP-labeled goat anti-human IgG Fc antibody (Sigma, A0170) in 40000 dilution as a detection agent and TMB for colorimetric reaction, the plates read at 450/650 nm for absorbance on Microplate Reader (Molecular Devices, SpectraMax 190) and data analysis was performed using a dose response curve format four parameters logistic model.

EC50 (read off the curve) | Binder
~0.02 µg/mL | B1
~0.02 µg/mL | B2
~0.02 µg/mL | B3
~0.02 µg/mL | B4

target: T1, human EGFR protein; assay: BLI (Octet RED96e), antibody captured on anti-human Fc (AHC) biosensors, EGFR in solution
Description: Affinity tests are performed in SD buffer (0.02% Tween-20, 0.1% BSA in PBS buffer, pH 7.4) using anti-human Fc Capture (AHC) biosensors. Antibody sample or buffer are dispensed into 96-well microtiter plates. AHC biosensors (Pall FortéBio) are pre-wet with SD buffer to establish a baseline before protein immobilization. The antibody sample is immobilized onto the biosensors. […] Mutant and control antibodies binding is evaluated at various concentrations of EGFR. Data are generated automatically by the Data Acquisition software, and data analysis is performed using FortéBio Data Analysis software.

Kd | koff | kon | Binder
44.1 nM | 0.024 s⁻¹ | 543000 M⁻¹ s⁻¹ | B5
28.3 nM | 0.0154 s⁻¹ | 543000 M⁻¹ s⁻¹ | B1
1.12 nM | 0.000736 s⁻¹ | 655000 M⁻¹ s⁻¹ | B2
38.8 nM | 0.0272 s⁻¹ | 701000 M⁻¹ s⁻¹ | B4

target: T1, human EGFR protein; assay: ELISA
Description: as §1

EC50 fold change against wt control | Binder
~100 fold | B6
